This note sets out measurements from patent US20230322924A1 (Janssen / Centocor, published 2023).

In experiment [1] the target is T1, human CD33, full length, on cells (human, UniProt P20138 18-364).
T1 construct: SH2 and OCIAML3 carry SNP rs12459419 (hetero-/homozygous), which leads to a form without the V domain; also called Human CD33 (HEK293F transfectants); CD33 on AML cell lines KG1, SH2, OCIAML3
The experiment in a line: flow cytometry on CD33 expressing HEK293F cells. Here is the method: OMNIRat antibodies identified via immunization, v-region cloned and subsequently expressed and purified were characterized further for binding to CD33 expressing cells and binding to recombinant antigens. The purified antibodies were assessed for binding to stably transfected HEK293F cells expressing human CD33 or cyno CD33 (generation described above) along with the parental HEK293F as negative control. Cells were harvested from tissue culture flasks using non-enzymatic dissociation buffer (Thermo Scientific). The flasks were rinsed twice with PBS and dissociation buffer was added to the flask, and the flask was incubated for 10 minutes at 37° C. until the cells became non-adherent. The cells were centrifuged at 300 g for 5 minutes and resuspended at 1.0×10⁶ cells/ml in staining buffer (Becton Dickinson; Franklin Lakes, NJ). 50,000 cells/well of each cell type was plated in 50 μl of staining buffer in round bottom plates (Becton Dickinson). […] 30 μl running buffer containing Sytox Green live/dead dye (ThermoFisher) was added to all wells with cells and the plates were read on an iQue IntelliCyt flow cytometer. […] Antibody binding was assessed by the mean fluorescence intensity in the AF647 channel.
A general note: In flow cytometry, cells or beads pass a laser one at a time.

The target of experiment [2] is T2, human PSMA on cells (LNCaP) (human, UniProt Q04609 1-750).
T2 construct: whole, on cells; also called LNCaP cells
T2 sequence (Q04609 whole entry): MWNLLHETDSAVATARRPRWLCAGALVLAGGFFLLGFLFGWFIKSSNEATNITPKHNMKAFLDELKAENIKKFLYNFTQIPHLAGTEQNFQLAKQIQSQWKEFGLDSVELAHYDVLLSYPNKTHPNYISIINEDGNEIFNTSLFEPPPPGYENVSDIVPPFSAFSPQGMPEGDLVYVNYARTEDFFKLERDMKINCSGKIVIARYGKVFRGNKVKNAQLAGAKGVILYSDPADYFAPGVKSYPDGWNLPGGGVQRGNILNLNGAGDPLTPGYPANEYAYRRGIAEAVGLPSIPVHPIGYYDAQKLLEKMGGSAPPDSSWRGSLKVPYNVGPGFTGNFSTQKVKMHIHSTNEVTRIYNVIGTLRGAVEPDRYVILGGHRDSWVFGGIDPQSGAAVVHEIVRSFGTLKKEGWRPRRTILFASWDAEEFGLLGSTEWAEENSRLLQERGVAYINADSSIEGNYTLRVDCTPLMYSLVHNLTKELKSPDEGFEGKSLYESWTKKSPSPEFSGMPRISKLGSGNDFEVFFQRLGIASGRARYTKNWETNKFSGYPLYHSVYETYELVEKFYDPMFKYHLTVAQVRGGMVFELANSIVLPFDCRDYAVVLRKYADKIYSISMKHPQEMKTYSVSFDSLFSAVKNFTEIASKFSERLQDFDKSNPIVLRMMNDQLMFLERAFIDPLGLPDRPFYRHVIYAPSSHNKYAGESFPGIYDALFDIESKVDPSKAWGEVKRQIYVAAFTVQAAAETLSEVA
The experiment in a line: flow cytometry on LNCaP cells. The procedure:
PSMA×CD3 bispecific antibodies were tested for binding to PSMA positive cell line, LNCAP, to PSMA negative cell line, PC3. To assess the binding capabilities of the PSMA bispecific antibodies, the cell-binding assay was utilized (described previously). Bispecific antibodies were normalized for protein concentration and then incubated with the same number of cells expressing either human or cyno PSMA. The MFI at each concentration was collected by flow cytometry and plotted as a function of concentration. Data was transformed via log 10 and then plotted. Nonlinear regression of binding curves was done to determine EC50s.

T1 sequence (P20138 18-364 limits assumed): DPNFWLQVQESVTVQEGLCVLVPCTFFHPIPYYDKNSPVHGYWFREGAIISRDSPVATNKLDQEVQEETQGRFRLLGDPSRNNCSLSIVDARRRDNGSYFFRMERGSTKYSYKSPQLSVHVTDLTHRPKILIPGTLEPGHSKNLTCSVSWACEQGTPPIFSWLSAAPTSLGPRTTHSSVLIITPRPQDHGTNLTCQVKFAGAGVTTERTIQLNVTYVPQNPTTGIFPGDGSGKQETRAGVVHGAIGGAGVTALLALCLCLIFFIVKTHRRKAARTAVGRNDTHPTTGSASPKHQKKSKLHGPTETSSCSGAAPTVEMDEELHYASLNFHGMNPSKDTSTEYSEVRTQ

B1: C33B909 (antibody, V domains shown)
VH: EVQLVESGGGLVQPGRSLRLSCVASGFTFDDYAIHWVRQAPGKGLEWVSGLSWNGGNIGYADSVKGRFTISRDNAKNSLYLQMNSLKTEDTAFYYCTKDTPYGDYFDYWGQGTLVTVSS
VL: DIQMTQSPSSVWASVGDRVTITCRASQGISSWLAWYQQQPGKAPNLLIYRSSSLQSGVPSRFSGSGSGTDFTLTISSLQPEDFATYYCQQDNSFPYTFGQGTKLEIK
notes: OmniMouse clone; also called C33H249/C33L115
Regarding B1, the binding result in experiment [1] is on record as “no binding (tested: 60 nM highest tested)”.

B2: PS3B90 (bispecific antibody, human IgG4 S228P, kappa, lambda, F234A L235A)
heavy 1: not shown
light 1: not shown
heavy 2: QVQLQQSGPRLVRPSQTLSLTCAISGDSVFNNNAAWSWIRQSPSRGLEWLGRTYYRSKWLYDYAVSVKSRITVNPDTSRNQFTLQLNSVTPEDTALYYCARGYSSSFDYWGQGTLVTVSSASTKGPSVFPLAPCSRSTSESTAALGCLVKDYFPEPVTVSWNSGALTSGVHTFPAVLQSSGLYSLSSVVTVPSSSLGTKTYTCNVDHKPSNTKVDKRVESKYGPPCPPCPAPEAAGGPSVFLFPPKPKDTLMISRTPEVTCVVVDVSQEDPEVQFNWYVDGVEVHNAKTKPREEQFNSTYRVVSVLTVLHQDWLNGKEYKCKVSNKGLPSSIEKTISKAKGQPREPQVYTLPPSQEEMTKNQVSLTCLVKGFYPSDIAVEWESNGQPENNYKTTPPVLDSDGSFLLYSKLTVDKSRWQEGNVFSCSVMHEALHNHYTQKSLSLSLGK
light 2: QSALTQPASVSGSPGQSITISCTGTSSNIGTYKFVSWYQQHPDKAPKVLLYEVSKRPSGVSSRFSGSKSGNTASLTISGLQAEDQADYHCVSYAGSGTLLFGGGTKLTVLGQPKAAPSVTLFPPSSEELQANKATLVCLISDFYPGAVTVAWKADSSPVKAGVETTTPSKQSNNKYAASSYLSLTPEQWKSHRSYSCQVTHEGSTVEKTVAPTECS
notes: IgG4 PAA; also called PSMB365 x CD3B376
For B2, the binding result in experiment [2] is recorded as “binds”.
